Our source for the protein stability index values is the supplement of paper PMC10567573.

± gives the standard deviation.

The nature of this data set: protein stability index of a GFP-peptide fusion (GPS, HEK-293T) (PSI 1-6); higher = more stable.
The mark [1] stands for this setting: treatment: DMSO, c terminus: a fixed tail appended.
Setting [2] is: treatment: MLN4924 1 uM, 8 h, c terminus: a fixed tail appended.
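Further: 24-mer peptide tiles fused after GFP, lentivirally expressed, FACS-sorted into six equal bins by GFP/DsRed ratio, decoded by Illumina sequencing, PSI is the read-weighted mean bin number.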

For LTASGDGTCALWDVESGQLLQSFH [GNB5], the protein stability index was determined as 2.67 ± 0.36 under setting [1] and 2.76 ± 0.24 under setting [2].

For LTASRQSFRMAMGNPSEFFVDVM [DVL3], the protein stability index by setting is: (treatment: DMSO, c terminus: native) 2.41 ± 0.65; (treatment: MLN4924 1 uM, 8 h, c terminus: native) 2.54 ± 0.85.

For the sequence LTCDALTELLAKITNTDVDCLKAC [CCND2], the protein stability index was 2.37 ± 0.28 under setting [1] and 2.34 ± 0.27 under setting [2].

As to LTDAVAPGNKGRGQRGNTESKTDG [TCF25], the protein stability index by setting is: under setting [1], 5.5 ± 0.27; under setting [2], 5.48 ± 0.45.

In the case of LTDAYGPPSNFLEIDIFNPQTVGV [SNX12], the protein stability index runs as follows: under setting [1], 2.87 ± 0.39; under setting [2], 3.19 ± 0.39.

With LTEHQRIHTGIKPHQCSECGRAFS [ZNF649], the protein stability index reads like this: under setting [1], 3.58 ± 0.064; under setting [2], 3.69 ± 0.38.

Turning to LTFHRHPVAQSTDGIRGKVGHARG [SPSB4], the protein stability index is, setting by setting: under setting [1], 3.99 ± 0.32; under setting [2], 3.97 ± 0.26.

For the sequence LTVLQRLDVWLSGGNDLCVWNRKL [WDR41], the protein stability index is, setting by setting: under setting [1], 2.17 ± 1; under setting [2], 2.39 ± 0.32.

As to LVALAEQHAVQELTKAATSGVGID [RHOBTB1], the protein stability index is 4.08 ± 0.29 under setting [1] and 4.18 ± 0.19 under setting [2].

For LVEDMVSQEEAQGLPSSELDAVEN [ZNF24], the protein stability index was 5.5 ± 0.48 under setting [1] and 5.43 ± 0.15 under setting [2].

On to LVGDDAACIAYIRLTQYMDGSGMP [CAMK2D], for which the protein stability index by setting is: under setting [1], 2.13 ± 0.91; under setting [2], 1.66 ± 0.13.

Turning to LVKHKRIHSREKRGDSVKVENPST [ZNF649], the protein stability index worked out at 4.41 ± 0.32 under setting [1] and 4.54 ± 0.48 under setting [2].

LVTIARKASLWQFLSSEKQICGTH [TRIM43] came in with a protein stability index under setting [1] of 2.06 ± 0.34 and a protein stability index under setting [2] of 2.17 ± 0.45.

As for LVTQQLPHLMPSNCGLEEKIANLG [S100A14], the protein stability index was found to be 2.43 ± 0.68 under setting [1] and 3.05 ± 0.55 under setting [2].

For LVVALDVDATLEHVQDPQNTVKVQ [INTS4], the protein stability index worked out at 3.03 ± 0.14 under setting [1] and 3.21 ± 0.2 under setting [2].

For the sequence LWDRAYVRLKPALQRLDFSVRGYM [RETREG3], the protein stability index worked out at 2.5 ± 0.43 under setting [1] and 2.69 ± 0.65 under setting [2].

On to LWRYRTITFSGRPSRVHASEVESA [FBXO39], for which the protein stability index under setting [1] was 2.79 ± 0.27 and the protein stability index under setting [2] amounted to 3 ± 0.33.

Turning to LWVQGDIFRSKLKNRPSSEGSINK [CDC14A], the protein stability index is, setting by setting: under setting [1], 2.62 ± 0.19; under setting [2], 2.92 ± 0.62.

As to LYAKMIQKLADLRSLNEEHSKQYR [VDR], the protein stability index runs as follows: under setting [1], 2.15 ± 0.41; under setting [2], 2.19 ± 0.22.

As to LYGFLLTFGFITMTPQLFINYKLK [CLPTM1], the protein stability index reads like this: under setting [1], 3.12 ± 0.64; under setting [2], 3.44 ± 0.32.

For LYLIMEFLPGGDMMTLLMKKDTLT [STK38L], the protein stability index came out at 3.03 ± 0.13 under setting [1] and 2.94 ± 0.81 under setting [2].

As to LYVSGLPKTMSQKEMEQLFSQYGR [ELAVL3], the protein stability index is 2.55 ± 0.14 under setting [1] and 2.66 ± 0.39 under setting [2].

Turning to LYYSNFVLALEERFGVRPKVTGYL [MFSD9], the protein stability index is, setting by setting: under setting [1], 2.76 ± 0.86; under setting [2], 2.91 ± 0.79.

As for MAEESSCTRDCMSFSVLNWDQVSR [TENT5C], the protein stability index by setting is: under setting [1], 2.71 ± 0.29; under setting [2], 2.99 ± 0.22.

With MALTPVVVTLWYRAPEVLLQSTYA [CDK4], the protein stability index runs as follows: under setting [1], 3.04 ± 0.41; under setting [2], 3.06 ± 0.45.

Consider MASSAAGCVVIVGSGVIGRSWAML [CRYL1], for which the protein stability index under setting [1] amounted to 3.7 ± 0.13 and the protein stability index under setting [2] came out at 2.89 ± 1.8.

For MAVRLAGGLQKMVALLNKTNVKFL [CTNNB1], the protein stability index came out at 2.871 ± 0.006 under setting [1] and 2.63 ± 0.76 under setting [2].

MDIESLSVFTEPNRHFYREMQSFS [FBXO33]: the protein stability index by setting is: under setting [1], 2.39 ± 0.33; under setting [2], 2.3 ± 0.24.

Regarding MEEDIDTRKINNSFLRDHSYATEA [PPP2R2B], the protein stability index worked out at 4.77 ± 0.19 under setting [1] and 4.72 ± 0.12 under setting [2].

Turning to MEEFRRSYSRLCRESGAEPQEAVL [LRRC45], the protein stability index reads like this: under setting [1], 3.77 ± 0.22; under setting [2], 3.84 ± 0.27.

With MENVPKENKVVEKAPVQNEAPALG [BEX5], the protein stability index reads like this: under setting [1], 5.33 ± 0.19; under setting [2], 5.46 ± 0.16.

With MERTGGIGDSRPPSFHPHAGGGSQ [DVL3], the protein stability index reads like this: under setting [1], 4.5 ± 0.18; under setting [2], 4.69 ± 0.16.

Consider MGFVPHNGSLYGQASSERLGLDNR [ADAMTSL2], for which the protein stability index under setting [1] worked out at 3.59 ± 0.38 and the protein stability index under setting [2] came to 3.66 ± 0.35.

With MGPDEYEEMEEEEEEEEEEDEDDD [FBXO3], the protein stability index is, setting by setting: under setting [1], 5.42 ± 0.22; under setting [2], 5.47 ± 0.14.

For MGVVSLVFLIIYYLDPSVLSGVSC [ARL6IP1], the protein stability index runs as follows: under setting [1], 3.18 ± 0.51; under setting [2], 3.13 ± 0.33.

MITLSEAYIQIWKRRDNDETNQQG [USP39]: the protein stability index is, setting by setting: under setting [1], 3.15 ± 0.31; under setting [2], 3.31 ± 0.38.

Regarding MKQLQQQQHSDKTSLQGLTGTPLV [ISL2], the protein stability index runs as follows: under setting [1], 4.01 ± 0.35; under setting [2], 4.2 ± 0.23.

Turning to MMEKILGPIPSHMIHRTRKQKYFY [CLK3], the protein stability index worked out at 2.27 ± 0.84 under setting [1] and 2.12 ± 0.3 under setting [2].

With MMHGRSYSLASGAGGGGSKGNSLK [RAB40C], the protein stability index runs as follows: under setting [1], 4.32 ± 0.061; under setting [2], 4.51 ± 0.15.

Take MNKSENLLFAGSSLASQVHAAAVN [INVS]: the protein stability index reads like this: under setting [1], 3.11 ± 0.24; under setting [2], 3.35 ± 0.34.

MPLEQRSQHCKPEEGLEARGEALG [MAGEA3]: the protein stability index under setting [1] was found to be 5.34 ± 0.34 and the protein stability index under setting [2] worked out at 5.39 ± 0.14.

MQNSNECKRNFVAVYDGSSSVEDL [NETO1] returned a protein stability index under setting [1] of 4.59 ± 0.066 and a protein stability index under setting [2] of 4.68 ± 0.22.

With MREQYEAMAERNRRDAEEWFHAKS [KRT13], the protein stability index by setting is: under setting [1], 4.81 ± 0.28; under setting [2], 4.75 ± 0.17.

Regarding MSLRNRLSKSRENPEEDEDQRNPA [SOAT1], the protein stability index by setting is: under setting [1], 5.58 ± 0.14; under setting [2], 5.45 ± 0.14.

MSQRNLNAKTEQGPTGVTMTSNPI [CDK11A]: the protein stability index was 4.53 ± 0.23 under setting [1] and 4.64 ± 0.17 under setting [2].

Consider MTSTGQDSTTTRQRRSRQNPQSPP [HDAC6], for which the protein stability index under setting [1] was 5.46 ± 0.14 and the protein stability index under setting [2] was determined as 5.4 ± 0.12.

For MTTTFLQTSSSTFGGGSTRGGSLL [KRT15], the protein stability index came out at 2.8 ± 0.35 under setting [1] and 2.97 ± 0.46 under setting [2].

In the case of MVGGLKRKHSDLEEEEERWEWSPA [SERTAD3], the protein stability index by setting is: under setting [1], 4.23 ± 0.4; under setting [2], 4.56 ± 0.16.

Turning to MVTQILGAMESQVGGGPAGPALPN [ELAVL3], the protein stability index runs as follows: under setting [1], 2.69 ± 0.098; under setting [2], 3.01 ± 0.53.

Turning to NAAHLGDKRRDLAHLAAEVEGKCL [TRIM39], the protein stability index by setting is: under setting [1], 4.46 ± 0.22; under setting [2], 4.5 ± 0.16.

Take NCIHRDIKPENILITKQGIIKICD [CDKL4]: the protein stability index is 2.51 ± 0.39 under setting [1] and 3.28 ± 0.24 under setting [2].

Take NDPSVNSQAQETTIIASNAEEAEI [TOR1AIP2]: the protein stability index was found to be 5.5 ± 0.13 under setting [1] and 5.59 ± 0.34 under setting [2].

On to NEHSAHCPHTPEFSVTGGTEEKSS [RPAIN], for which the protein stability index reads like this: under setting [1], 5.44 ± 0.24; under setting [2], 5.28 ± 0.15.

In turn, NETVNSIFAQGAPRSSLAESFFVD [ADAMTSL2] came in with a protein stability index under setting [1] of 3.77 ± 0.086 and a protein stability index under setting [2] of 3.86 ± 0.073.

On to NFDNPWNFQNIPKETELPFPKQIL [MIA2], for which the protein stability index turned out to be 2.74 ± 0.27 under setting [1] and 2.9 ± 0.4 under setting [2].

For NFVYNSPRGYFHTFAGDTCQVALN [WASL], the protein stability index under setting [1] was 2.24 ± 0.44 and the protein stability index under setting [2] was found to be 2.27 ± 0.64.

Take NGSISSAGNSSRNSSQSSSDGSCK [BTBD10]: the protein stability index is 5.01 ± 0.23 under setting [1] and 5.2 ± 0.16 under setting [2].

Take NGSYLELSSDRVANSSSEAPFPNV [ADAMTSL2]: the protein stability index by setting is: under setting [1], 4.52 ± 0.18; under setting [2], 4.28 ± 0.15.

For the sequence NHGLVSVGESVEEAFYYIHNLVVA [ADD1], the protein stability index is, setting by setting: under setting [1], 2.24 ± 0.31; under setting [2], 2.1 ± 0.58.

For NINDRIKELGTLIPKSSDPEMRWN [TFE3], the protein stability index was determined as 3.58 ± 0.33 under setting [1] and 3.77 ± 0.17 under setting [2].

NIYVHDLLTFQQITTVSKAKGASL [VPS39]: the protein stability index runs as follows: under setting [1], 2.32 ± 0.3; under setting [2], 2.27 ± 0.34.

Consider NKPTMSFKDYIQERSDPVEQGKPV [ETS2], for which the protein stability index under setting [1] is 4.75 ± 0.23 and the protein stability index under setting [2] amounted to 4.83 ± 0.26.

In turn, NKSVTLYTVKDKATGEVLGQFYLD [NLN] gave a protein stability index under setting [1] of 2.13 ± 0.3.

In the case of NKWTVQYNVSPLSWNVAVKFLMAR [PTPN9], the protein stability index under setting [1] amounted to 2.47 ± 0.54 and the protein stability index under setting [2] was determined as 2.15 ± 0.38.

For the sequence NLLESKADGIEVSYNACGVLSHIM [ZER1], the protein stability index under setting [1] came to 2.25 ± 0.08 and the protein stability index under setting [2] turned out to be 2.31 ± 0.28.

Turning to NLQCLYCEKTFRDKNTLKDHMRKK [ZNF277], the protein stability index stood at 3.29 ± 0.42 under setting [1] and 3.39 ± 0.66 under setting [2].

As to NNLAASQLKLDHYRAALRSCSLVL [FKBP8], the protein stability index is, setting by setting: under setting [1], 2.62 ± 0.11; under setting [2], 2.35 ± 0.27.

Take NNWDKWMAKKHKKIRLRCQKGIPP [TBC1D10A]: the protein stability index by setting is: under setting [1], 2.74 ± 0.24; under setting [2], 3.1 ± 0.12.

NQLILTASADRTVIVWDGDTTRQV [WDR41]: the protein stability index runs as follows: under setting [1], 2.79 ± 0.2; under setting [2], 3.12 ± 0.2.

For the sequence NQPTRFGKLLLRLPSLRTVSSSVI [NR2F2], the protein stability index stood at 2.44 ± 0.24 under setting [1] and 2.5 ± 0.2 under setting [2].

Sequence NRDSSMKLSFRARAYGFRGPGPQL [CHGA] registered a protein stability index under setting [1] of 2.44 ± 0.28 and a protein stability index under setting [2] of 2.47 ± 0.42.

Regarding NRGLILYRLGYFDDALEDFKKVLD [TTC32], the protein stability index reads like this: under setting [1], 2.05 ± 0.59; under setting [2], 2.24 ± 0.14.
